Target: the molecule itself
Experiment: native gel or EMSA; PAGE run under native conditions and Western blot with anti-His IgG of hLAMAN expressed in K. phaffii for the indicated time periods; single band at approx. 230 kDa

B1: Human lysosomal α‐mannosidase (enzyme, UniProt O00754 50-1011, looked up)
chain: GGYETCPTVQPNMLNVHLLPHTHDDVGWLKTVDQYFYGIKNDIQHAGVQYILDSVISALLADPTRRFIYVEIAFFSRWWHQQTNATQEVVRDLVRQGRLEFANGGWVMNDEAATHYGAIVDQMTLGLRFLEDTFGNDGRPRVAWHIDPFGHSREQASLFAQMGFDGFFFGRLDYQDKWVRMQKLEMEQVWRASTSLKPPTADLFTGVLPNGYNPPRNLCWDVLCVDQPLVEDPRSPEYNAKELVDYFLNVATAQGRYYRTNHTVMTMGSDFQYENANMWFKNLDKLIRLVNAQQAKGSSVHVLYSTPACYLWELNKANLTWSVKHDDFFPYADGPHQFWTGYFSSRPALKRYERLSYNFLQVCNQLEALVGLAANVGPYGSGDSAPLNEAMAVLQHHDAVSGTSRQHVANDYARQLAAGWGPCEVLLSNALARLRGFKDHFTFCQQLNISICPLSQTAARFQVIVYNPLGRKVNWMVRLPVSEGVFVVKDPNGRTVPSDVVIFPSSDSQAHPPELLFSASLPALGFSTYSVAQVPRWKPQARAPQPIPRRSWSPALTIENEHIRATFDPDTGLLMEIMNMNQQLLLPVRQTFFWYNASIGDNESDQASGAYIFRPNQQKPLPVSRWAQIHLVKTPLVQEVHQNFSAWCSQVVRLYPGQRHLELEWSVGPIPVGDTWGKEVISRFDTPLETKGRFYTDSNGREILERRRDYRPTWKLNQTEPVAGNYYPVNTRIYITDGNMQLTVLTDRSQGGSSLRDGSLELMVHRRLLKDDGRGVSEPLMENGSGAWVRGRHLVLLDTAQAAAAGHRLLAEQEVLAPQVVLAPGGGAAYNLGAPPRTQFSGLRRDLPPSVHLLTLASWGPEMVLLRLEHQFAVGEDSGRNLSAPVTLNLRDLFSTFTITRLQETTLVANQLREAASRLKWTTNTGPTPHQTPYQLDPANITLEPMEIRTFLASVQWKEVDG
notes: human lysosomal alpha-mannosidase (hLAMAN, EC 3.2.1.24), gene MAN2B1; That vector probably adds the alpha-factor secretion signal; it speaks of a homodimer of the polypeptides A-E, (A-E)2; also called hLAMAN; MAN2B1; source: K. phaffii X33 (pPICZalpha), methanol-induced; aliquots of pellet and supernatant analysed, not purified
- stoichiometry N: 2

Reference: publication PMC11931667, “A new view of missense mutations in α‐mannosidosis using molecular dynamics conformational ensembles” (Protein Science : A Publication of the Protein Society, 2025)
